Our source for the EC50 (pM) of proliferation of murine NFS-60 cells (48 h, CellTiter-Blue; receptor of the cells); rhG-CSF self-made from E. coli values is publication PMC12628175.

This assay concerns the target Recombinant human G-CSFR (granulocyte-colony-stimulating factor receptor) (human) (UniProt Q99062).
Chain of UniProt Q99062 (Q99062 25-333): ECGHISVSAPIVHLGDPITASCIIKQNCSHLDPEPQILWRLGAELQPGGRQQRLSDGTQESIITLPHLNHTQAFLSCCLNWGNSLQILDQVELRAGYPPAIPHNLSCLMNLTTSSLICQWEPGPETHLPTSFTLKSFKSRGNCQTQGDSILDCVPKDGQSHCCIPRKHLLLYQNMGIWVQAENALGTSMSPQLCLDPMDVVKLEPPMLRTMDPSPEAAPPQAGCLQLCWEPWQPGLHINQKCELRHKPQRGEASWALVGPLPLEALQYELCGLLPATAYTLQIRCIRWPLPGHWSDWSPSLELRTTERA

As for “Recombinant human granulocyte colony-stimulating factor (rhG-CSF) (from UniProt P09919 31-207) (ligand)”, the EC50 (pM) of proliferation of murine NFS-60 cells (48 h, CellTiter-Blue; receptor of the cells); rhG-CSF self-made from E. coli is 2.6 pM.
